Experimental data taken from PMC2195916.

How the values were obtained:
[1] = target: C4b-binding protein (C4bp) (human) (UniProt P04003); assay: flow cytometry on cells
[2] = target: Por1B of N. gonorrhoeae strain MS11 (Neisseria gonorrhoeae strain MS11); assay: flow cytometry on cells

percent decrease of C4bp binding to MS11 (C4b in 60-fold molar excess) [1] [%]	Substance	percent decrease of binding in 575 mM NaCl [2] [%]	percent decrease of binding with 125 units of heparin [2] [%]
50	C4b (natural protein)		
	C4b-binding protein (C4bp) (from UniProt P04003 49-597; P20851 18-252) (complex)	85	> 90
